Reference: US20150231240A1, “ANTI-C16ORF54 ANTIBODIES AND METHODS OF USE THEREOF” (priority 2012, published 2015)

Tests used:
[1] = molecular target: T1, N-terminal 32 amino acids of huC16orf54 (Homo sapiens, UniProt Q6UWD8); assay: Affinity measurements of purified antibodies on OctetQK384; assay type: binding; conditions: purified antibody, streptavidin sensors coated with N-terminal 32 amino acids of huC16orf54 coupled to biotin
T1 sequence (Q6UWD8 1-32 limits assumed): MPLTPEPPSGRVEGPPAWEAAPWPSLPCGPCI
Procedure: Affinity measurements of purified anti-huC16orf54 antibodies were carried out on the OctetQK384® sytem (ForteBio). After coating streptavidin sensors with the N-terminal 32 amino acids of huC16orf54 coupled to biotin at the C-terminus, association and dissociation of purified anti-huC16orf54 antibodies was monitored. KD values were derived using ForteBio's software.

[2] = molecular target: T2, C16orf54 on peripheral blood and bone marrow mononuclear cells (Homo sapiens, UniProt Q6UWD8); assay: Flow cytometry of PBMC and BMMC from healthy donors; assay type: binding
T2 construct: endogenous in cells; host or cells: PBMC and BMMC from healthy donors
T2 sequence (Q6UWD8 1-224): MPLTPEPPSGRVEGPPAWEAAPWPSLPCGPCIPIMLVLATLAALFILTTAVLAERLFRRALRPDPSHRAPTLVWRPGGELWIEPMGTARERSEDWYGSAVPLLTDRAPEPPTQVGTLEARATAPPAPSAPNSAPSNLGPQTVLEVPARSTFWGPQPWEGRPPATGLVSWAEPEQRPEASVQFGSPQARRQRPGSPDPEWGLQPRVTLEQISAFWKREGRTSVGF
Procedure: Anti-C16orf54 antibodies were tested for their binding to various cell lines and primary samples (e.g., AML, CLL, lymphoma) using flow cytometry. Copy number of C16orf54 on the various cell lines was determined. Peripheral blood mononuclear (PBMC) and bone marrow mononuclear (BMMC) cells from healthy donors were immunofluorescently stained using the antibodies of CD19, CD3, CD14, CD34, CD33, lineage markers, in addition to an anti-C16orf54 antibody and isotype control antibody, and then evaluated by flow cytometric analysis. […] In single lineage gated populations, C16orf54 is broadly expressed in CD19+ B cells, CD14+ monocytes, CD34+/lineage—progenitor cells and CD33+ myeloid cells, whereas CD3+ T cells have a distinctively low to undetectable level of C16orf54.

[3] = molecular target: T3, C16orf54 on cell lines and primary samples (Homo sapiens, UniProt Q6UWD8); assay: C16orf54 copy number enumeration by flow cytometry with AlexaFluor647 conjugated antibody; assay type: binding
T3 sequence (Q6UWD8 1-224): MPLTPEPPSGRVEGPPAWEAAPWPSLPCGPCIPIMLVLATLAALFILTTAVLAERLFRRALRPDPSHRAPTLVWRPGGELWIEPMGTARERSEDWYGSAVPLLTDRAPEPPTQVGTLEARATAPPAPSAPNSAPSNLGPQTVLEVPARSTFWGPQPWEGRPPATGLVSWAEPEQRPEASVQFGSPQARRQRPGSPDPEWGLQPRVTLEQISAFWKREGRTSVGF
Procedure: In some assays, human cell lines and primary samples were immunofluorescently stained using an anti-C16orf54 monoclonal antibody R29-7-1C that was conjugated to AlexaFluor647, and copy number of C16orf54 was determined by interpolation on a calibration curve generated by Quantum™ Simply Cellular® bead standards (Bangs Laboratories, Inc.) Copy number results are shown in Table 39 various cell lines and primary samples expressing C16orf54. […]

[4] = molecular target: T4, cynomolgus monkey C16orf54 (cynomolgus monkey (Macaca fascicularis), UniProt Q6UWD8 1-224 (human entry)); assay: flow cytometry titration, F279-cyno-C16orf54 cells
T4 construct: also called cyno C16orf54; cyno-C16orf54
T4 chain: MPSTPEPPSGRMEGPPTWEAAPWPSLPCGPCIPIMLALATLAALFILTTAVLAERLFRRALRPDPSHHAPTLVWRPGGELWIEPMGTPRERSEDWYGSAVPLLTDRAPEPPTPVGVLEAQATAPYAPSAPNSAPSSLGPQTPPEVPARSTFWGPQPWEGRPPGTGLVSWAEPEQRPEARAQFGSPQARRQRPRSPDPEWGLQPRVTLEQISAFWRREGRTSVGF
Procedure: Anti-C16orf54 antibodies which bound to human C16orf54 were tested for their binding to cells expressing human C16orf54 and cells expressing cyno C16orf54. […] Median fluorescence intensities for each primary antibody concentration were used to derive a flow EC50/Kd using the one site-specific binding with Hill slope model in Prism (GraphPad Prism® Software). Results are shown as flow EC50 in Table 35.

human C16orf54 [5] = molecular target: T5, human C16orf54 (human, UniProt Q6UWD8 1-224); assay: flow cytometry, WSU-DLCL2 lymphoma cells (endogenous C16orf54), 1 repeat
T5 construct: also called huC16orf54; hC16orf54
T5 sequence: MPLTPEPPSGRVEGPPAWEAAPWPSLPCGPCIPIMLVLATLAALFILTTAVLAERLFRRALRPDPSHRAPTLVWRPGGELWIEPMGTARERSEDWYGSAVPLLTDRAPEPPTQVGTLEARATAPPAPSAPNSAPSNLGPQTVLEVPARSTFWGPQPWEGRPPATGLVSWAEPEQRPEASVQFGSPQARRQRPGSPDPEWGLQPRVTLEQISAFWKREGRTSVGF

human C16orf54 [6] = molecular target: T5, human C16orf54; assay: flow cytometry, HEL92.1.7 leukemia cells (endogenous C16orf54), 3 repeats
human C16orf54 [7] = molecular target: T5, human C16orf54; assay: flow cytometry, KARPAS-1106P lymphoma cells (endogenous C16orf54), 1 repeat
human C16orf54 [8] = molecular target: T5, human C16orf54; assay: flow cytometry, BxPC-3 pancreatic cancer cells (endogenous C16orf54), 3 repeats
human C16orf54 [9] = molecular target: T5, human C16orf54; assay: flow cytometry, CFPAC-1 pancreatic cancer cells (endogenous C16orf54), 3 repeats
[10] = molecular target: T6, N-terminal 32 amino acids of huC16orf54 coupled to biotin (human, biotin at the C-terminus); assay: biolayer interferometry (OctetQK384), hybridoma supernatant on streptavidin sensors coated with the biotinylated peptide
T6 construct: also called 32 amino acid N-terminal extracellular domain
T6 peptide: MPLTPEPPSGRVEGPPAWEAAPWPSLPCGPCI
Procedure: Eight anti-huC16orf54 monoclonal antibodies were further screened for binding and subsequent off-rate analysis using the OctetQK384® sytem (ForteBio). Hybridoma supernatants were screened for association to and dissocation from streptavidin sensors coated with the N-terminal 32 amino acids of huC16orf54 coupled to biotin, and the calculated offrates (kdis) are shown in Table 31. Cloned hybridomas with […] off-rates were carried forward for antibody purification.

B1: R29-7-1C: murine anti-C16orf54 monoclonal antibody, IgG2a; VH SEQ ID NO: 8, VL SEQ ID NO: 10 (antibody, V domains shown)
VH: MRVLILLWLFTAFPGILSDVQLQESGPGLVKPSQSLSLTCTVTGYSITSDYAWNWIRQFPGNKLEWMGYISYSGSIRYNPSLKSRISITRDTSKNQFFLQLNSVTTEDTATYYCAREKYDNYYYAMDYWGQGTSVTVSS
VL: MDSQAQVLMLLLLWVSGTCGDIVMSQSPSSLAVSVGEKVTLSCKSSQNLLYSTNQKNYLAWYQQKPGQSPKLLIYWASTRESGVPDRFTGSGSGTDFTLTISSVKAEDLAVYYCQQYYSYRTFGGGTKLEIK
modifications: R29-7-1C heavy chain variable region; R29-7-1C light chain variable region
B1 was tested, and the kdis [1] was 7.95e-05 ± 8.9e-06 s⁻¹, the kon [1] was 68100 ± 6200 M⁻¹ s⁻¹ and the “staining of PBMC and BMMC from healthy donors (C16orf54 expression)” value [2] was “low but positive expression of C16orf54 with slightly higher level in BMMCs”. For the same molecule, the “Bang's analysis Average copy #” value ([3]; Human cell line KG1/lymphoblast) was 19,975 (1), the “Bang's analysis Average copy #” value ([3]; Human cell line KG1/myeloblast) was 29,971 (10) and the “Bang's analysis Average copy #” value ([3]; Human cell line KG1A) was 11,198 (1). For the same molecule, the “Bang's analysis Average copy #” value ([3]; Human cell line WSU-DLCL2) was 5,517 (3), the “Bang's analysis Average copy #” value ([3]; Human cell line WSU-FSCCL) was 4,221 (3) and the “Bang's analysis Average copy #” value ([3]; Primary Sample CLL 1) was 3,979 (1). The “Bang's analysis Average copy #” value ([3]; Primary Sample CLL 2) was 10,515 (1), the “Bang's analysis Average copy #” value ([3]; Primary Sample CLL 3) was 12,277 (1) and the “Bang's analysis Average copy #” value ([3]; Primary Sample CLL 4) was 11,240 (1). The “Bang's analysis Average copy #” value ([3]; Primary Sample Lymphoma 1) was 10,630 (1), the “Bang's analysis Average copy #” value ([3]; Primary Sample Lymphoma 2) was 34,397 (1) and the “Bang's analysis Average copy #” value ([3]; Primary Sample MM 1) was 5,798 (1). For the same molecule, the “Bang's analysis Average copy #” value ([3]; Primary Sample MM 2) was 7,590 (1).

B2: R29-7-1C (antibody, V domains shown)
VH: DVQLQESGPGLVKPSQSLSLTCTVTGYSITSDYAWNWIRQFPGNKLEWMGYISYSGSIRYNPSLKSRISITRDTSKNQFFLQLNSVTTEDTATYYCAREKYDNYYYAMDYWGQGTSVTVSS
VL: DIVMSQSPSSLAVSVGEKVTLSCKSSQNLLYSTNQKNYLAWYQQKPGQSPKLLIYWASTRESGVPDRFTGSGSGTDFTLTISSVKAEDLAVYYCQQYYSYRTFGGGTKLEIK
notes: Murine monoclonal IgG2a from a hybridoma
With B2 the EC50 [4] was 2.7 nM, the “Average MFI fold change relative to isotype control” value (human C16orf54 [5]) was 9.2 fold and the “Average MFI fold change relative to isotype control” value (human C16orf54 [6]) was 5 fold. The “Average MFI fold change relative to isotype control” value (human C16orf54 [7]) was 10.5 fold, the “Average MFI fold change relative to isotype control” value (human C16orf54 [8]) was 7 fold and the “Average MFI fold change relative to isotype control” value (human C16orf54 [9]) was 1.6 fold. It also gave a koff [10] of 0.0102 s⁻¹.
